In patent publication EP2420255A2 (Ecole Polytechnique Federale De Lausanne (EPFL), dated 2012):
Numbered stars: 1 amine (or outer) side, 2 acyl side, 3 side chain; on linkers, the order of the positions; unused ones are H or OH. Bridge positions count the residues as written; N and C are the ends. TBMB = c1c(C[*:1])cc(C[*:3])cc1C[*:2]

Legend:
[1] = target: T1, human urokinase-type plasminogen activator (UPA-LMW, from human urine, 33 kDa) (human, UniProt P00749 156-431); assay: enzyme inhibition of human uPA, residual activity
[2] = target: T1, human urokinase-type plasminogen …; assay: enzyme inhibition, Ki
[3] = target: T2, mouse uPA (MUPA-LMW, recombinantly produced in insect cells, 31 kDa) (mouse, UniProt P06869 157-433, limits assumed); assay: enzyme inhibition, Ki
T2 construct: also called murine uPA

[4] = target: T1, human urokinase-type plasminogen …; assay: cell-based or functional assay
[5] = target: T2, mouse uPA (MUPA-LMW, recombinantly …); assay: cell-based or functional assay
[6] = target: T3, human tPA (HTPA-TC, recombinant, 70 kDa) (human, UniProt P00750 36-562); assay: cell-based or functional assay
[7] = target: T4, mouse tPA (MTPA, recombinantly produced in insect cells, 70 kDa) (mouse, UniProt P11214 33-559, limits assumed); assay: cell-based or functional assay
[8] = target: T5, human plasmin (HPLM, from human plasma, 85 kDa) (human, UniProt P00747 97-810, limits assumed); assay: cell-based or functional assay
[9] = target: T6, human trypsin (HTRYP, from human pancreas, 25 kDa) (human, UniProt P07477 24-247); assay: cell-based or functional assay
[10] = target: T7, human plasma kallikrein (IHPKA, from human plasma, 86 kDa) (human, UniProt P03952 20-638); assay: cell-based or functional assay
[11] = target: T8, human thrombin (IHT, from human plasma, 37 kDa) (human, UniProt P00734 328-622); assay: cell-based or functional assay
[12] = target: T9, human factor XIa (IHFXI, from human plasma, 160 kDa) (human, UniProt P03951 19-625); assay: cell-based or functional assay
[13] = target: T1, human urokinase-type plasminogen …; assay: enzyme inhibition, Ki calculated from IC50 by the Cheng-Prusoff equation, pH 7.4, 25 °C
[14] = target: T2, mouse uPA (MUPA-LMW, recombinantly …); assay: as above
[15] = target: T3, human tPA (HTPA-TC, recombinant, 70 kDa); assay: as above
[16] = target: T4, mouse tPA (MTPA, recombinantly produced …); assay: as above
[17] = target: T5, human plasmin (HPLM, from human plasma, …); assay: as above
[18] = target: T6, human trypsin (HTRYP, from human …); assay: as above
[19] = target: T7, human plasma kallikrein (IHPKA, from …); assay: as above
[20] = target: T8, human thrombin (IHT, from human plasma, …); assay: as above
[21] = target: T9, human factor XIa (IHFXI, from human …); assay: as above

T2 sequence (P06869 157-433 limits assumed): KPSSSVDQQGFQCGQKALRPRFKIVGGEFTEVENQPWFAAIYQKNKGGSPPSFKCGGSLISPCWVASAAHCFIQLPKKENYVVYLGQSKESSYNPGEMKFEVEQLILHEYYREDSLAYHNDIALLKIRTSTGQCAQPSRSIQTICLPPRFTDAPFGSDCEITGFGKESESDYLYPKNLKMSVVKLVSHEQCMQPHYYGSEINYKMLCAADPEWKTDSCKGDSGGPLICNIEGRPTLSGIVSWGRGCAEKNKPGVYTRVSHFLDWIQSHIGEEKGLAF
T9 sequence (P03951 19-625 limits assumed): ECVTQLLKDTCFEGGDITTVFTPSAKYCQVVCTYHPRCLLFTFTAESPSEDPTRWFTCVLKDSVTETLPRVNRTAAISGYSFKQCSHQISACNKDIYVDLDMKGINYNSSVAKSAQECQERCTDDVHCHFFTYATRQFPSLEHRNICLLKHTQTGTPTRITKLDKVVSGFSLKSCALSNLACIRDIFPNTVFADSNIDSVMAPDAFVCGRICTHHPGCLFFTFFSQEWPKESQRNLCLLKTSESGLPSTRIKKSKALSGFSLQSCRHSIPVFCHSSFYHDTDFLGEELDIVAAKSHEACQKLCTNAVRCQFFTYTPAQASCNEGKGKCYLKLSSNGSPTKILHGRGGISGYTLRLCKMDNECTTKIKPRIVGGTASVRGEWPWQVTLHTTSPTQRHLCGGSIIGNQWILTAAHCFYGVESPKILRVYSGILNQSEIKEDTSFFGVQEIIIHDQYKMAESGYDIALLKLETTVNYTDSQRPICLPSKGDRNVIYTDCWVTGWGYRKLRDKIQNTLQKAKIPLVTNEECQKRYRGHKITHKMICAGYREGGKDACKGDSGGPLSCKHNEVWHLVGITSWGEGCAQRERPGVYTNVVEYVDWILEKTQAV
T3 sequence (P00750 36-562 limits assumed): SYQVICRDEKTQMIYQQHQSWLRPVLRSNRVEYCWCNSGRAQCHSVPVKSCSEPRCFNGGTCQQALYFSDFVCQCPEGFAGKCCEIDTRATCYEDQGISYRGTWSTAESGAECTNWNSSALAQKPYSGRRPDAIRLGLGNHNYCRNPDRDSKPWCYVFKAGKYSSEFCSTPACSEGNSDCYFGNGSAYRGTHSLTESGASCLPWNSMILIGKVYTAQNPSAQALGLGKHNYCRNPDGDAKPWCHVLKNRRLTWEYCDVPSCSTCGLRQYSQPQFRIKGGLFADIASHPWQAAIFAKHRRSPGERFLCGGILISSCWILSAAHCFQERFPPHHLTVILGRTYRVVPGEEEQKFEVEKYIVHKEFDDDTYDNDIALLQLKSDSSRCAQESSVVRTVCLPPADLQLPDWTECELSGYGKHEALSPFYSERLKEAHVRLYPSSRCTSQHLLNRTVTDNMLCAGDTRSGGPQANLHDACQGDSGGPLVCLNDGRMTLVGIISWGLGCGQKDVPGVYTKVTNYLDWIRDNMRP
T4 sequence (P11214 33-559 limits assumed): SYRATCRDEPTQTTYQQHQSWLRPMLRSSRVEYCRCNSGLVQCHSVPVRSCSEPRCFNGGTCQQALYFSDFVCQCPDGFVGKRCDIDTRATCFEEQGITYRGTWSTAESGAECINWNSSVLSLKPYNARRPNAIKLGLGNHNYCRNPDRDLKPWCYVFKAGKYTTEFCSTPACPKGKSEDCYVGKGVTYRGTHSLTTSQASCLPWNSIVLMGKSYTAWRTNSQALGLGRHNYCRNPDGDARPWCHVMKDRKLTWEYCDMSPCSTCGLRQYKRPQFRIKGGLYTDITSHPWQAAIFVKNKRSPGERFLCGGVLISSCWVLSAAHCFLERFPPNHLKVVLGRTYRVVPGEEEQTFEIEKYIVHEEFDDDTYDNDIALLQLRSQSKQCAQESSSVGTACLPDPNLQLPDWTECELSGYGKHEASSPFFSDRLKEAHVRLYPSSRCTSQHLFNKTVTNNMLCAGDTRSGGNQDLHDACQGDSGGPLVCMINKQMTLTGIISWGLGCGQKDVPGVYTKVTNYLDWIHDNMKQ
T5 sequence (P00747 97-810 limits assumed): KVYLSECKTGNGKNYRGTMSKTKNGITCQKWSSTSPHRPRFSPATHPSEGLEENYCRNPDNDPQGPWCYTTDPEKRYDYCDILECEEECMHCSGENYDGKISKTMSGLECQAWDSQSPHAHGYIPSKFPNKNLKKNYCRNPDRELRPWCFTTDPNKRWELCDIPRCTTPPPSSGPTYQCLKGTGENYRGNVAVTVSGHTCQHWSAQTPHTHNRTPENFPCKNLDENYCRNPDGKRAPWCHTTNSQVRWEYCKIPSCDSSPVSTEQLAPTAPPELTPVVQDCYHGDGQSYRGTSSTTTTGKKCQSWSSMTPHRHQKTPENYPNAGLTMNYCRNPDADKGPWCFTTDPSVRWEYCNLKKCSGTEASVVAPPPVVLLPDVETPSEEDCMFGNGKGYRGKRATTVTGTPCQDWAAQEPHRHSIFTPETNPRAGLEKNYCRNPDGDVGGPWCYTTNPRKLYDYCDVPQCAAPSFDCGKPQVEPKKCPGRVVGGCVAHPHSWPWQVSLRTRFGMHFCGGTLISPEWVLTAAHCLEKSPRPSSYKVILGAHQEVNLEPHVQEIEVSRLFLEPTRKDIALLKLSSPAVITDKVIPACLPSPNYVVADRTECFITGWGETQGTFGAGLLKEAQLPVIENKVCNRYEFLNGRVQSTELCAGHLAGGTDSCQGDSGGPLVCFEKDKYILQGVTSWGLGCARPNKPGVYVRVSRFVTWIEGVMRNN
T7 sequence (P03952 20-638 limits assumed): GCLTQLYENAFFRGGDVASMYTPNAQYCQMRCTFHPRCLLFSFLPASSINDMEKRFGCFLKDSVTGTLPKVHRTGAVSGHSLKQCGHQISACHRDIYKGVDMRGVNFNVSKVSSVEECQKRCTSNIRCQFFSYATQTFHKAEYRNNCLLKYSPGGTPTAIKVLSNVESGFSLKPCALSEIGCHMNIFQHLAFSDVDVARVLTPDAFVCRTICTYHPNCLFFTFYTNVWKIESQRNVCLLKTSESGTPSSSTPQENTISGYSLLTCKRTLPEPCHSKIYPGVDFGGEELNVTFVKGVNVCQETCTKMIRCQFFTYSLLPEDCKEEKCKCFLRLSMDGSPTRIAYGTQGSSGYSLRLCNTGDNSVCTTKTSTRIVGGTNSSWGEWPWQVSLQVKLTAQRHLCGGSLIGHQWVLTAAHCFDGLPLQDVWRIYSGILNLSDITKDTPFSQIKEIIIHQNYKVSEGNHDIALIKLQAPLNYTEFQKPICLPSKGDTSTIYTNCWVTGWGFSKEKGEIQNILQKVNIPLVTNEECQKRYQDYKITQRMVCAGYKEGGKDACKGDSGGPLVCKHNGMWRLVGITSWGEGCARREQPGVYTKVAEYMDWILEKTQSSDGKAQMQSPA

B1: linear UK18 peptide with serine instead of cysteine in positions 2, 9 and 16 (H-ASSRYEVDSRGRGSASG-NH2) (peptide)
peptide: H-ASSRYEVDSRGRGSASG-NH2
notes: Not conjugated to TBMB; M = 1740.0 Da; also called UK18ser
Ki [1]: 5.8 µM | fold weaker inhibition than the TBMB-cyclised UK18 peptide [1]: ~200 fold

B2: UK18 bicyclic peptide (chemically synthesized peptide-TBMB conjugate, H-ACSRYEVDCRGRGSACG-NH2 cyclised with tris-(bromomethyl)benzene) (peptide)
peptide: H-ACSRYEVDCRGRGSACG-NH2
modifications: linker 2-9-16 via TBMB
SMILES: CC(C)[C@@H]1NC(=O)[C@H](CCC(=O)O)NC(=O)[C@H](Cc2ccc(O)cc2)NC(=O)[C@H](CCCNC(=N)N)NC(=O)[C@H](CO)NC(=O)[C@@H](NC(=O)[C@H](C)N)CSCc2cc3cc(c2)CSC[C@H](NC(=O)[C@H](CC(=O)O)NC1=O)C(=O)N[C@@H](CCCNC(=N)N)C(=O)NCC(=O)N[C@@H](CCCNC(=N)N)C(=O)NCC(=O)N[C@@H](CO)C(=O)N[C@@H](C)C(=O)N[C@H](C(=O)NCC(N)=O)CSC3
notes: Synthetic bicyclic peptide, 1903 Da after reaction with TBMB; also called clone 18; TBMB-cyclised UK18 peptide
fold better inhibition than of other serine proteases [2]: ~1000 fold | fold of Ki against the Ki of human uPA [3]: ~1400 fold | IC50 (µM), residual protease activity, substrate Z-Gly-Gly-Arg-AMC [4]: 0.047 µM | IC50 (µM), residual protease activity, substrate Z-Gly-Gly-Arg-AMC [5]: 65.5 µM | IC50 (µM), residual protease activity, substrate Z-Gly-Gly-Arg-AMC [6]: 87.5 µM | IC50 (µM), residual protease activity, substrate Z-Gly-Gly-Arg-AMC [7]: 52.5 µM | IC50 (µM), residual protease activity, substrate H-D-Val-Leu-Lys-AMC [8]: 57.5 µM | IC50 (µM), residual protease activity, substrate Z-Gly-Gly-Arg-AMC [9]: 54.5 µM | IC50 (µM), residual protease activity, substrate Z-Phe-Arg-AMC [10]: 47.5 µM | IC50 (µM), residual protease activity, substrate Z-Gly-Gly-Arg-AMC [11]: 36 µM | IC50 (µM), residual protease activity, substrate Boc-Phe-Ser-Arg-AMC [12]: 63 µM | Ki [13]: 0.03 µM | Ki [14]: 42 µM | Ki [15]: 56.1 µM | Ki [16]: 33.7 µM | Ki [17]: 36.9 µM | Ki [18]: 34.9 µM | Ki [19]: 30.5 µM | Ki [20]: 23.1 µM | Ki [21]: 40.4 µM
